Measured values taken from FireProtDB (doi:10.1038/75151).

Conditions: Bacillus caldolyticus, pH 7, Thermal, CD, Sodium cacodylate-HCl 0.1 M, reversible: yes, whole UniProt chain shown

B1: Cold shock protein CspB wild type, P41016 (protein)
chain: MQRGKVKWFNNEKGYGFIEVEGGSDVFVHFTAIQGEGFKTLEEGQEVSFEIVQGNRGPQAANVVKL
In the case of B1, the unfolding free energy (70 °C, NaCl 2 M) is reported as 2.2 kcal/mol, the Tm is reported as 76.9 °C and the “unfolding enthalpy (van 't Hoff)” value is reported as 58.6 kcal/mol.
